Changes are numbered by the printed parent chain. {Biotin} = biotin (Bio) of the a-strand; {Bio} = biotin of the strand
B1: D-9: extension fragment deformation+core short-sequence DNA nanoparticle, SEQ ID NO: 144-146, 3′ biotin (nucleic acid)
chain 1: GCGGCGAGCGGCGAGCAGCGTTCGGGCCGGAGGCCGG
chain 2: CCGGCCTCCGGCCCGTTCGCCGCCAGCCGCC
chain 3: GGCGGCAGGCGGCCATAGCGCTCGCCGCTCGCCGC
modifications: chain 1: DNA, 3' {Bio}, backbone and methylation of C not given here; chain 2: DNA, backbone and methylation of C not given here; chain 3: DNA, backbone and methylation of C not given here; three-strand DNA nanoparticle carrier
B2: D-13: extension fragment deformation+core short-sequence DNA nanoparticle, SEQ ID NO: 156-158, 3′ biotin (nucleic acid)
chain 1: B1 chain 1 with G15C, C16G, C23G, G24C
chain 2: B1 chain 2 with C14G, G15C
chain 3: B1 chain 3 with G20C, C21G
modifications: chain 1: DNA, 3' {Bio}, backbone not given here; chain 2: DNA, backbone not given here; chain 3: DNA, backbone not given here; three-strand DNA nanoparticle carrier
B3: D-10: extension fragment deformation+core short-sequence DNA nanoparticle, SEQ ID NO: 147-149, 3′ biotin (nucleic acid)
chain 1: B1 chain 1 with C16G, C23G
chain 2: B1 chain 2 with G15C
chain 3: B1 chain 3 with G20C
modifications: chain 1: DNA, 3' {Bio}, backbone not given here; chain 2: DNA, backbone not given here; chain 3: DNA, backbone not given here; three-strand DNA nanoparticle carrier
B4: D-14: extension fragment deformation+core short-sequence DNA nanoparticle, SEQ ID NO: 159-161, 3′ biotin (nucleic acid)
chain 1: B1 chain 1 with G15C, C16G, C23G, G24C
chain 2: B1 chain 2 with C14G, G15C, C20G
chain 3: B1 chain 3 with G12C, G20C, C21G
modifications: chain 1: DNA, 3' {Biotin}, backbone not given here; chain 2: DNA, backbone not given here; chain 3: DNA, backbone not given here; three-strand DNA nanoparticle carrier
B5: D-11: extension fragment deformation+core short-sequence DNA nanoparticle, SEQ ID NO: 150-152, 3′ biotin (nucleic acid)
chain 1: B1 chain 1
chain 2: B1 chain 2 with C20G
chain 3: B1 chain 3 with G12C
modifications: chain 1: DNA, 3' {Bio}, backbone not given here; chain 2: DNA, backbone not given here; chain 3: DNA, backbone not given here; three-strand DNA nanoparticle carrier
B6: D-12: extension fragment deformation+core short-sequence DNA nanoparticle, SEQ ID NO: 153-155, 3′ biotin (nucleic acid)
chain 1: B1 chain 1
chain 2: B1 chain 2 with C20G, G22C
chain 3: B1 chain 3 with C10G, G12C
modifications: chain 1: DNA, 3' {Biotin}, backbone not given here; chain 2: DNA, backbone not given here; chain 3: DNA, backbone not given here; three-strand DNA nanoparticle carrier

Test system: HepG2 cells
Assay: Cell binding of DNA nanoparticles and carrier drugs by FACS
Assay type: cell-based
Conditions: HepG2, 1 μM, incubated at 37 DEG C. for 2 h, flow cytometry
Protocol: 1. A cell state is adjusted to a logarithmic growth phase, the medium is changed into a medium without biotin and folic acid, and it is incubated overnight in an incubator at 37 DEG C.
2. After incubation, cell suspension is trypsinized and collected, and centrifuged at 1000 rpm for 5 min, after the concentration is adjusted, a 2×10^6-5×10^6 cell/EP tube is taken and washed twice with 1 mL/tube of 1% BSA-PBS, and cells at the bottom of the tube is observed to prevent them from being absorbed.
3. A substance to be tested is dissolved, and the substance to be tested is diluted to a use concentration.
4. Cell supernatant is absorbed, 100 μL of a corresponding sample is added to each tube in order, light is avoided, and it is incubated at 37 DEG C. for 2 h.
5. It is washed twice with 1% BSA-PBS; and centrifuged at 1000 rpm for 5 min.
6. Finally, it is precipitated with 300 μL of PBS cell resuspension, and flow Cytometric on-machine detection (the blank carrier used in the present embodiment is labeled by Quasar670, and the doxorubicin in the carrier drug has its own fluorescence, so the detection may be performed through FL4-APC and FL2-PE respectively) is performed.

| Molecule | Positive rate |
| --- | --- |
| B1 | 96.7% |
| B2 | 97.6% |
| B3 | 97.9% |
| B4 | 97.4% |
| B5 | 97.7% |
| B6 | 96.9% |

Same assay, conditions: HepG2, 2 μM, incubated at 37 DEG C. for 2 h, flow cytometry

| Molecule | Positive rate |
| --- | --- |
| B1 | 98.1% |
| B2 | 98.2% |
| B3 | 98.3% |
| B4 | 98.3% |
| B5 | 97.8% |
| B6 | 97.1% |

Test system: not listed separately
Assay: Particle size measurement (DLS hydrodynamic size)
Assay type: physicochemical
Conditions: DLS hydrodynamic size
Excerpt: 1. Preparing a potential sample (conventional-sequence DNA self-assembly product D-7) and putting into a sample pool, opening a sample pool cover of an instrument, and placing the instrument;
2. opening software, and clicking a menu, so a manual measurement parameter setting dialog box appears;
3. setting a software detection parameter; and then
4. clicking Ok to complete the settings, when a measurement dialog box appears, clicking Start to start, a DLS measurement value result of a hydrodynamic size of the self-assembly product D-7 is shown below in Table 40: […]

| Molecule | Mean particle size (nm) |
| --- | --- |
| B1 | 7.920 nm |
| B2 | 7.012 nm |
| B3 | 7.220 nm |
| B4 | 6.896 nm |
| B5 | 7.472 nm |
| B6 | 6.968 nm |

Test system: not listed separately
Assay: TM value detection by solubility curve method (SYBR Green I)
Assay type: physicochemical
Conditions: DNA nanoparticles
Protocol: A solubility curve method is used to detect TM values of the 7 groups of the extension fragment deformation+core short-sequence RNA nanoparticles, and the samples are consistent with the potential samples.
(1) After the sample is diluted with ultrapure water, 5 μg of the diluted sample is mixed with 2 μL of SYBR Green I dye (diluted by 1:200), a final volume is 20 μL, and the dilution concentration is as follows:
(2) It is incubated for 30 min in the dark at a room temperature; and
(3) On-machine detection is performed, a program is set to start at 20 DEG C., the temperature rises per second from 0.1 DEG C. to 95 DEG C., and reading is performed every 5 s.
Due to the particularity of the RNA samples, a temperature corresponding to ½ RFUmax in a range of 20 to 90 DEG C. is used as a sample Tm value in this test.
A solubility curve method is used to detect TM values of the 7 groups of the extension fragment deformation+core short-sequence DNA nanoparticles, and the samples are consistent with the potential samples.
(1) After the sample is diluted with ultrapure water, 5 μg of the diluted sample is mixed with 2 μL of SYBR Green I dye (diluted by 1:200). a final volume is 20 μL, and the dilution concentration is as follows: […]

| Molecule | TM value (° C.) |
| --- | --- |
| B1 | 52.5 °C |
| B2 | 51.0 °C |
| B3 | 54.5~55.0 °C |
| B4 | 49.2 °C |
| B5 | 48.7 °C |
| B6 | 51.5 °C |

Test system: not listed separately
Assay: Drug loading rate of nucleic acid nanoparticles (chemical loading, absorbance standard curve)
Assay type: physicochemical
Design: unit not given here
Conditions: absorbance at 492 nm
Excerpt: According to the chemical loading method (unless otherwise specified, the method is the same as that of Embodiment 5) of Embodiment 5, the RNA nanoparticles formed by the self-assembly of the previous R-15, R-16, R-17, R-18, R-19, R-20 and R-21 in Embodiment 9, and the DNA nanoparticles formed by the self-assembly of the D-8, D-9, D-10, D-11, D-12, D-13 and D-14 in Embodiment 10 are respectively used as doxorubicin loading carriers, doxorubicin loading rates measured are respectively as follows:
According to the chemical loading method (unless otherwise specified, the method is the same as that of Embodiment 5) of Embodiment 5, the DNA nanoparticles formed by the self-assembly of the previous D-10 and D-14 in Embodiment 10 are used as a daunorubicin loading carrier.
According to a chemical loading method of Embodiment 5 (unless otherwise specified, the method is the same as that of Embodiment 5, the same molar number of the epirubicin is used as a loading amount), nucleic acid nanoparticles (a molecular weight is 29550, it is similar to the RNA nanoparticles in Embodiment 1, and a difference is that a fluorescent label on a c-strand is Cy5) are used as a carrier, and respectively loaded with: epirubicin, methotrexate, pirarubicin, daunorubicin, […], 10-hydroxycamptothecin, aspirin and gemcitabine.
Herein, when a standard curve is drawn, the absorbance of the above drugs on the microplate reader is measured respectively. The absorbance of the epirubicin, methotrexate, pirarubicin, daunorubicin, […], 10-hydroxycamptothecin, aspirin and gemcitabine is respectively detected at the following wavelengths: 492 nm, 303 nm, 492 nm, 492 nm, 265 nm, 384 nm, 225 nm and 268 nm. The standard curves obtained correspondingly are respectively shown in FIG. 48a, FIG. 49, FIG. 50sa, FIG. 51, FIG. 52, FIG. 53, FIG. 54a and FIG. 55. […]

| Molecule | daunorubicin loading rate |
| --- | --- |
| B3 | 24.0 |
| B4 | 25.1 |

Same assay, conditions: chemical loading method of Embodiment 5

| Molecule | doxorubicin loading rate |
| --- | --- |
| B1 | 27.9 |
| B2 | 31.8 |
| B3 | 18.9 |
| B4 | 32 |
| B5 | 26.8 |
| B6 | 27.6 |

Test system: not listed separately
Assay: Electric potential (zeta potential) measurement of self-assembly products
Assay type: physicochemical
Conditions: result over 3 detections, at 25 DEG C.
Protocol: Measurement method: preparing a potential sample (the self-assembly product is dissolved in ultrapure water) and putting into a sample pool, opening a sample pool cover of an instrument, and placing the instrument;
opening software, clicking a menu MeasUre€ManUal, so a manual measurement parameter setting dialog box appears;
setting a software detection parameter;
and then clicking Ok to complete the settings, after a measurement dialog box appears, clicking start to start.
and then clicking Ok to complete the settings, after a measurement dialog box appears, clicking Start to start.
Measurement method: preparing a potential sample (the self-assembly product is dissolved in ultrapure water) and putting into a sample pool, opening a sample pool cover of an instrument, and placing the instrument:
Measurement result potential detection results of the 7 groups of the extension fragment deformation+core short-sequence RNA nanoparticles at 25 DEG C. are as follows:
setting a software detection parameter; and then
clicking Ok to complete the settings, after a measurement dialog box appears, clicking Start to start.
Measurement result potential detection results of the 7 groups of the extension fragment deformation+core short-sequence DNA nanoparticles at 25 DEG C. are as follows: […]

| Molecule | Potential ZP, Experiment result |
| --- | --- |
| B1 | −35.07 mV |
| B2 | −27.00 mV |
| B3 | −25.77 mV |
| B4 | −28.73 mV |
| B5 | −27.43 mV |
| B6 | −32.50 mV |

Test system: HepG2 cells
Assay: CCK8 toxicity of DNA nanoparticles and carrier drugs
Assay type: cell-based
Conditions: HepG2, CCK8, 72 hours
Protocol: A CCK8 method is used to detect the toxicity of DNA nanoparticles and carrier drugs to HepG2.
2. A sample to be tested is diluted according to the following table and added: the original culture medium is removed and 100 μL of a culture medium of the sample to be tested with the different concentration is added, and there are 3 replicate wells in each group.
In the present embodiment, the loaded drug and the blank carrier are firstly prepared into 100 μM of stock solution using the PBS, and then diluted with the complete culture medium (biotin-free DMEM). The original drug doxorubicin is firstly prepared into 100 NM of stock solution by using the DMSO, and then diluted with the complete culture medium (biotin-free DMEM). The DMSO is directly diluted with the complete medium (biotin-free DMEM).
3. After the sample to be tested is added, the 96-well plate is placed in an incubator under 37 DEG C. and 5% CO2 and incubated for 72 hours.
4. A kit is taken out and melted at a room temperature, 10 μL of CCK-8 solution is added to each wall, or the CCK8 solution is nixed with the culture medium at a ratio of 1:9, and then added to the well in an amount of 100 μL/well.
5. It is continuously incubated in the cell incubator for 4 hours, and a length of time depends on experimental conditions such as a cell type and a el density.
6. A microplate reader is used to measure an absorbance at 450 nm.
7. Calculation: cell viability (%)=(OD experimental group−OD blank group)[…]/(OD control group−OD blank group), IC50 is calculated by GraphPad Prism 5.0.

| Molecule | IC50 |
| --- | --- |
| B1 | > 1000 nM |
| B2 | > 1000 nM |
| B3 | > 1000 nM |
| B4 | > 1000 nM |
| B5 | > 1000 nM |
| B6 | > 1000 nM |

— patent US20220226473A1, “Nucleic acid nanocarrier drug and preparation method thereof, pharmaceutical composition and application thereof” (BAI YAO ZHI DA (BEIJING) NANOBIO TECHNOLOGY CO., LTD., priority 2018, published 2022)
